Reference: US20230279138A1 (CHIA TAI TIANQING PHARMACEUTICAL GROUP, published 2023)

Assays:
[1] = target: T1, CD20 on Raji cells (CD20+/CD3- cells) (human, UniProt P11836 1-297); test: cell-based or functional assay
T1 sequence (looked up): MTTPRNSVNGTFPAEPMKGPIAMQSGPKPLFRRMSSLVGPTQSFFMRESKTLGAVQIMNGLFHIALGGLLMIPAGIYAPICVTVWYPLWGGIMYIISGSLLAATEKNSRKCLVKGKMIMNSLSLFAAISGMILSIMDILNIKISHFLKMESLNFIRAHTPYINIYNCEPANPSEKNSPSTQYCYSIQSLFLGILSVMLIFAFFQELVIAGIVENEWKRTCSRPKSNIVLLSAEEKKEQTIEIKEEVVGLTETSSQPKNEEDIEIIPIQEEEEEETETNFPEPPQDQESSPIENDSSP

[2] = target: T1, CD20 on Raji cells (CD20+/CD3- cells); test: cell-based or functional assay; remark: listed apart in the source
[3] = target: T1, CD20 on Raji cells (CD20+/CD3- cells); test: cell-based or functional assay; remark: listed apart in the source
[4] = target: T1, CD20 on Raji cells (CD20+/CD3- cells); test: cell-based or functional assay; remark: listed apart in the source
[5] = target: T2, CD3 on Jurkat cells (CD3+/CD20- cells) (human, UniProt P07766 23-207; P04234 22-171; P09693 23-182); test: cell-based or functional assay
[6] = target: T1, CD20 on Raji cells (CD20+/CD3- cells); test: flow cytometry on Raji cells (CD20+/CD3-)
Description: (§1) After incubation, the cells were washed twice with cold 1% BSA/1×PBS. […] After being washed twice, the geometric mean fluorescence (MFI) of the stained cells was measured using a FACS Canto II […] (BD Biosciences). Wells containing no antibody or containing only fluorescent secondary antibody were used to establish background fluorescence. The EC50 values for cell binding were determined using GraphPad Prism 5 software (GraphPad Software, La Jolla, Calif.); each value was calculated by four-parameter non-linear regression analysis.

[7] = target: T2, CD3 on Jurkat cells (CD3+/CD20- cells); test: flow cytometry on Jurkat 2B8 cells (CD3+/CD20-)
Description: as §1

[8] = target: T1, CD20 on Raji cells (CD20+/CD3- cells); test: FACS on Raji cells after 14 days at 37 C in human serum
Description: as §1
(§2) The antibody was mixed with freshly collected human serum and the proportion of serum in the mixture sample was ensured to be >95%. The mixture sample was aliquoted and incubated at 37° C. for 0-14 days. […] The bindings of each sample to Raji or Jurkat cells was analyzed by FACS.

[9] = target: T1, CD20 on Raji cells (CD20+/CD3- cells); test: FACS on Raji cells after 0, 1, 4 or 7 days at 37 C in human serum
Description: as §1, §2

T2 sequence (P07766 23-207, chain 1 of 3): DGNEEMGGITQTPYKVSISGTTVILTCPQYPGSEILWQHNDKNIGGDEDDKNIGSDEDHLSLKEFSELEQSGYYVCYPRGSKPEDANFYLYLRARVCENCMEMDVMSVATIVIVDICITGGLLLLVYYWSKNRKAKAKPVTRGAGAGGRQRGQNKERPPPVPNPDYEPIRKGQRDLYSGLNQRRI
T2 sequence (P04234 22-171, chain 2 of 3): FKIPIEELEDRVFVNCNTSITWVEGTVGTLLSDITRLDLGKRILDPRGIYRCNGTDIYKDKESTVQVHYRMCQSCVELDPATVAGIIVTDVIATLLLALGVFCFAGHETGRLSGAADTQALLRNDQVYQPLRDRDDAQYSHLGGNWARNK
T2 sequence (P09693 23-182, chain 3 of 3): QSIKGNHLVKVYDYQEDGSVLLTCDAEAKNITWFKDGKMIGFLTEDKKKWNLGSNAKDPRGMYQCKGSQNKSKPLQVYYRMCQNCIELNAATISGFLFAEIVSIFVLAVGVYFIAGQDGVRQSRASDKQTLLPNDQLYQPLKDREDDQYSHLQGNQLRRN

EC50 of CD25 expression, CD4+ T cells with Raji cells [2]: 0.0006 nM
EC50 of CD25 expression, CD8+ T cells with Raji cells [2]: 0.0008 nM
EC50 of CD69 expression, CD4+ T cells with Raji cells [3]: 0.0002 nM
EC50 of CD69 expression, CD8+ T cells with Raji cells [3]: 0.0004 nM
EC50 of IL-2 release, CD4+ T cells with Raji cells [4]: 0.0114 nM
EC50 of TNF-α release, CD4+ T cells with Raji cells [4]: 0.0135 nM
Biological activity (%) (EC50 of reference/EC50 of test sample; Jurkat luciferase reporter with Raji cells), lyophilized formulation, T0 [5]: 114%
EC50 [6]: 2.5 nM
TOP MFI [6]: 66700 MFI
EC50 [7]: 41.7 nM
TOP MFI [7]: 4080 MFI
EC50 (read off the curve) [8]: ~6 nM
EC50 (read off the curve) [9]: ~6 nM
B1: W3278-U2T3.F18R-1.uIgG4.SP (bispecific antibody)
heavy 1: QVQLQQPGAELVKPGASVKMSCKASGYTFTSYNMHWVKQTPGRGLEWIGAIYPGNGDTSYNQKFKGKATLTADKSSSTAYMQLSSLTSEDSAVYYCARSTYYGGDWYFNVWGAGTTVTVSAASTKGPSVFPLAPCSRSTSESTAALGCLVKDYFPEPVTVSWNSGALTSGVHTFPAVLQSSGLYSLSSVVTVPSSSLGTKTYTCNVDHKPSNTKVDKRVGGGGSGGGGSQVQLVQSGAEVKKPGSSVKVSCKASGFAFTDYYIHWVRQAPGQGLEWMGWISPGNVNTKYNENFKGRVTITADKSTSTAYMELSSLRSEDTAVYYCARDGYSLYYFDYWGQGTLVTVLEDLKNVFPPEVAVFEPSEAEISHTQKATLVCLATGFYPDHVELSWWVNGKEVHSGVCTDPQPLKEQPALQDSRYALSSRLRVSATFWQNPRNHFRCQVQFYGLSENDEWTQDRAKPVTQIVSAEAWGRYGPPCPPCPAPEFLGGPSVFLFPPKPKDTLMISRTPEVTCVVVDVSQEDPEVQFNWYVDGVEVHNAKTKPREEQFNSTYRVVSVLTVLHQDWLNGKEYKCKVSNKGLPSSIEKTISKAKGQPREPQVYTLPPCQEEMTKNQVSLWCLVKGFYPSDIAVEWESNGQPENNYKTTPPVLDSDGSFFLYSRLTVDKSRWQEGNVFSCSVMHEALHNHYTQKSLSLSLG
heavy 2: QVQLQQPGAELVKPGASVKMSCKASGYTFTSYNMHWVKQTPGRGLEWIGAIYPGNGDTSYNQKFKGKATLTADKSSSTAYMQLSSLTSEDSAVYYCARSTYYGGDWYFNVWGAGTTVTVSAASTKGPSVFPLAPCSRSTSESTAALGCLVKDYFPEPVTVSWNSGALTSGVHTFPAVLQSSGLYSLSSVVTVPSSSLGTKTYTCNVDHKPSNTKVDKRVESKYGPPCPPCPAPEFLGGPSVFLFPPKPKDTLMISRTPEVTCVVVDVSQEDPEVQFNWYVDGVEVHNAKTKPREEQFNSTYRVVSVLTVLHQDWLNGKEYKCKVSNKGLPSSIEKTISKAKGQPREPQVCTLPPSQEEMTKNQVSLSCAVKGFYPSDIAVEWESNGQPENNYKTTPPVLDSDGSFFLVSRLTVDKSRWQEGNVFSCSVMHEALHNHYTQKSLSLSLG
light 1: QIVLSQSPAILSASPGEKVTMTCRASSSVSYIHWFQQKPGSSPKPWIYATSNLASGVPVRFSGSGSGTSYSLTISRVEAEDAATYYCQQWTSNPPTFGGGTKLEIKRTVAAPSVFIFPPSDEQLKSGTASVVCLLNNFYPREAKVQWKVDNALQSGNSQESVTEQDSKDSTYSLSSTLTLSKADYEKHKVYACEVTHQGLSSPVTKSFNRGEC
light 2: DIVMTQSPDSLAVSLGERATINCKSSQSLLNSRTRKNYLAWYQQKPGQPPKLLIYWASTRQSGVPDRFSGSGSGTDFTLTISSLQAEDVAVYYCTQSHTLRTFGGGTKVEIKPDIQNPDPAVYQLRDSKSSDKSVCLFTDFDSQTQVSQSKDSDVYITDKCVLDMRSMDFKSNSAVAWSQKSDFACANAFQNSIIPEDTFFPSPESS
notes: Human IgG4 S228P, knobs-into-holes; also called WBP3278 lead Ab; W3278 lead Ab
cytotoxicity EC50, CD8+ T cells against NAMALWA cells (FACS) [1]: 0.0468 nM
cytotoxicity EC50, CD8+ T cells against Raji cells (FACS) [1]: 0.00052 nM
cytotoxicity EC50, CD8+ T cells against Ramos cells (FACS) [1]: 0.00125 nM
EC50 ratio IL-2 release/Raji cell killing [4]: 22
EC50 ratio TNFα release/Raji cell killing [4]: 26
